Positions count from the first letter of the chain named.

Here are results for seven molecules from patent US20220348668A1 (UNIVERSITE DE FRANCHE COMTE, published 2022).

The target of assay [1] is CD123 on cells and tissues (CAL-1, GEN 2.2, PDX and primary BPDCN cells, normal pDC, monocytes, CD34+ cells, endothelial cells) (human) (UniProt P26951). In words: flow cytometry on normal pDC; mean [minimum-maximum]. On the technique in general: A flow cytometer gives signals particle by particle.
For assay [2] the target is unchanged. In words: flow cytometry on monocytes; mean [minimum-maximum].
Assay [3] shares this target. Put plainly: flow cytometry on endothelial HMEC cell line; mean [minimum-maximum].
For assay [4] the target is unchanged. Put plainly: flow cytometry, MFIR = MFI of CD123 staining / MFI of isotype control mAb; cells: normal pDC, n=7; mean [min-max].
Assay [5] shares this target. In words: flow cytometry, MFIR = MFI of CD123 staining / MFI of isotype control mAb; cells: CD34 cells, n=7; mean [min-max].
For assay [6] the target is unchanged. Put plainly: flow cytometry, MFIR = MFI of CD123 staining / MFI of isotype control mAb; cells: lymphocytes, n=12; mean [min-max].
Assay [7] has the same target. In words: flow cytometry on CD34+ cells; mean [minimum-maximum].
Assay [8] shares this target. Put plainly: flow cytometry, MFIR = MFI of CD123 staining / MFI of isotype control mAb; cells: polynuclear cells, n=5; mean [min-max].
Assay [9] has the same target. Put plainly: flow cytometry, MFIR = MFI of CD123 staining / MFI of isotype control mAb; cells: monocytes, n=12; mean [min-max].
The target is the same in assay [10]. In words: flow cytometry on BPDCN cells; mean [minimum-maximum].
Assay [11] shares this target. In words: flow cytometry, MFIR = MFI of CD123 staining / MFI of isotype control mAb; cells: BPDCN, n=3; mean [min-max].
In assay [12] the target is T1, CD123 (protein in solution in the Octet affinity assay) (human, UniProt P26951 19-305, limits assumed).
T1 construct: also called IL-3Rα; Interleukine-3 Receptor alpha
T1 sequence (looked up): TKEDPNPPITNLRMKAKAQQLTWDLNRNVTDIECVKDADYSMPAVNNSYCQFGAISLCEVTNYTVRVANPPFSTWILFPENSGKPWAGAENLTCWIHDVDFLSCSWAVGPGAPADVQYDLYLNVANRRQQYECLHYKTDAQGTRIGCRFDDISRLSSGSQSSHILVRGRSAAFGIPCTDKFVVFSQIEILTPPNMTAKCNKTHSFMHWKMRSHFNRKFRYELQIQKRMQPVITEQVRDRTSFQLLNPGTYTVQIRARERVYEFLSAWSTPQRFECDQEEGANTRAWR
In words: BLI (Octet), antibody on streptavidin biosensor, CD123 6.25 nM. The protocol:
(§1) Affinity of the antibodies of the invention to CD123 is tested on streptavidin biosensors. Herein, to determine KD values seven different concentrations of CD123 were used on immobilized antibodies of the invention. The results were analyzed according to the Octet system available at FortéBio.
On the technique in general: BLI is a label-free optical method that tracks binding on a fibre tip over time.

Assay [13] deals with T1, CD123 (protein in solution in the Octet …). In words: BLI (Octet), antibody on streptavidin biosensor, CD123 50 nM. The protocol:
as §1

The target is the same in assay [14]. Put plainly: BLI (Octet), antibody on streptavidin biosensor, CD123 12.5 nM. As to the method:
as §1

Assay [15] has the same target. In words: BLI (Octet), antibody on streptavidin biosensor, CD123 in solution. The protocol:
as §1

The target is the same in assay [16]. In words: BLI (Octet), antibody on streptavidin biosensor, CD123 25 nM. The protocol:
as §1

6H6 commercial antiCD123 antibody: the MFI in assay [1] stood at 34400; in assay [2], 1700; in [3] it was 1250; in assay [7] it was 874; in assay [10], 11700. Moreover, the MFIR was 210 in [4]; 8 in assay [5]; 2.2 in assay [6]; 1.5 in [8]; 3.3 in [9]; 42.2 in assay [11].

B1: 17F7B2 (antibody, V domains shown)
VH: EVQLQQSGTVLARPGASVKMSCKASGYSFTSYWMHWVKQRPGQGLEWIGAFYPGKSDTTYNQKFKGKAKLTAVTSASTAYMELSSLTNEDSAVYYCTKGYRYDWFAYWGQGTLVTVSA
VL: DVVMTQTPLSLPVSLGDQASISCRSSQSLVHSNGITYLHWYLQKPGQSPKLLIYKVSNRFSGVPDRFSGSGSGTDFTLKISRVEAEDLGVYFCSQNTHVPFTFGSGTKLEIKR
notes: Mouse hybridoma monoclonal antibody; also called AB2
Turning to B1, the Response in assay [12] came out at 0.149; in assay [13], 0.507; in [14], 0.265; in assay [16], 0.34. Also, the Kd (in general, a measure of binding affinity in units of concentration) in assay [15] is 2.55 nM. For the same molecule, the koff (as a rule, a measure of how fast the partners let go of each other) in [15] was found to be 0.000882 s⁻¹. In addition, the kon (commonly the rate constant with which the complex forms) in assay [15] came out at 346000 M⁻¹ s⁻¹.

B2: 18B4D5 (antibody, V domains shown)
VH: EVKLQESGPGLVKPSQSLSLTCTVTGYSITSDYTWNWIRQFPGNKLEWMGYISFSGSTSYNPSLKSRLSITRDTSKNQFFLQLNSVTTEDTATYYCARGLDYWGQGTTLTVSS
VL: DIVMTQSPAIMSASLGERVTMTCTASSSISSSYLYWYQQKPGSSPKLWIYSTSNLASGVPARFSGSGSGTSYSLTISSMEAEDAATYYCHQLHRSPWTFGGGTKLEIKR
notes: Mouse hybridoma monoclonal antibody; The tie uses 'at least 85% identity' wording; also called AB1; antiCD123 B4D5
Turning to B2, the Response is 0.12 in assay [12], 0.697 in [13], 0.23 in [14] and 0.42 in assay [16]. The molecule also yielded a Kd in assay [15] of under 0.001 nM. Also, in [15], the koff is under 1e-07 s⁻¹. In [15], this molecule registered a kon of 122000 M⁻¹ s⁻¹.

B3: 14G12D7 (antibody, V domains shown)
VH: B2 VH with K3Q, I29V, T34A, S53I, F54Y, S57T, L68I, A97T, L100V
VL: DIVLTQSPAIMSASPGEKVTMTCRASSSVRSSYLHWYQQKSGASPKLWIYSTSNLASGVPARFSGSGSGTSYSLTISSVEAEDAATYYCLQFSGYPFTFGGGTKLEIKR
notes: Mouse hybridoma monoclonal antibody; also called AB4
In assay [13], B3 showed a Response of 0.221. In addition, in [15], the Kd is 8.84 nM, the koff turned out to be 0.000325 s⁻¹ and the kon stood at 36700 M⁻¹ s⁻¹. For the same molecule, the Response in assay [16] worked out at 0.134.

B4: 15E11B7 (antibody, V domains shown)
VH: EVQLEQSGPELVKPGDSVKISCKASGYSFTGYFMNWVKQSHGKSLEWIGRINPYNDYTFNNQKFKDKATLTVDKSSSTAHMELLSLTSEDSAVYYCGGGVRGAWFAFWGQGTLVTVSE
VL: DIVLTQSTTSLAVSLGQRATISCRASKSVSTSGYNYMHWYQQKPGQPPKLLIYLASNLESGVPARFSGSGSGTDFTLNIHPVEEEDAATYYCQHSADLPYTFGGGTKLEIKR
notes: Mouse hybridoma monoclonal antibody; also called AB6
For B4, in assay [12], the Response was 0.0878. This molecule gave a Response in assay [14] of 0.155. Moreover, in assay [15], the Kd turned out to be 2.48 nM, the koff is 0.000826 s⁻¹ and the association rate constant (kon) worked out at 332000 M⁻¹ s⁻¹. In [16], this molecule registered a Response of 0.305.

B5: 11A12C6 (antibody, V domains shown)
VH: QVQLKESGPGLVAPSQSLSITCTVSGFSLTSYDINWIRQTPGKGLEWLGVIWTGGGTNYNSAFMSRLSISRDNSKSQVFLKMNSLQTDDTAIYYCVRGDGYYWYFDVWGAGTTVTVSS
VL: IVMTQSPSSLAVSAGEKVTMSCKSSQSLFSSSARKNYLAWYQQRPGQSPKLLIYWASTRESGVPDRFTGSGSGTDFTLTIGSVQAEDLAVYYCKQSYSLFTFGSGTKLEIKR
notes: Mouse hybridoma monoclonal antibody; also called AB5
Turning to B5, the Response in [12] came out at 0.281. Besides, in assay [14], the Response stood at 0.416. Also, in [15], the Kd is under 0.001 nM, the koff was under 1e-07 s⁻¹ and the kon worked out at 326000 M⁻¹ s⁻¹.

B6: 11B6E6 (antibody, V domains shown)
VH: QVKLEESGPGLVAPSQSLSITCTVSGFSLTSYDISWIRQPPGKGLEWLGVIWTGGGTNYNSAFMSRLSISKDNSKSQVFLKMFSLQTDDTAIYYCVRAHGYYFAMDYWGQGTSVTVSS
VL: DIVLTQSPSSLAVSAGEKVTMRCKSSQSLLNSSTRKNYLAWYQQKPGQSPKLLIYWASTRESGVPDRFTGSGSGTDFTLTISSVQAEDLAVYYCKQSYNLFTFGSGTKLEIKR
notes: Mouse hybridoma monoclonal antibody; also called AB3
In the case of B6, the Response in assay [12] was 0.0349; in assay [13], 0.316; in assay [14] it was 0.0895; in assay [16], 0.179. Besides, the Kd in assay [15] was 9.37 nM. The molecule also had a koff in assay [15] of 0.000657 s⁻¹. Besides, the kon in assay [15] was 70100 M⁻¹ s⁻¹.
